Results on one substance are retold here after patent US20250332254A1, “METHODS FOR TREATING PATIENTS WITH FAMILIAL HYPERCHOLESTEROLEMIA” (REGENERON PHARMACEUTICALS, INC., priority 2016, published 2025).

In data set [1] the target is T1, ANGPTL3 (Homo sapiens, UniProt Q9Y5C1).
T1 construct: Angiopoietin-like protein 3 (ANGPTL3) is a secreted protein expressed in the liver; from tissue; host or cells: in vivo, human subjects; circulating protein secreted by the liver
T1 sequence (Q9Y5C1 17-460): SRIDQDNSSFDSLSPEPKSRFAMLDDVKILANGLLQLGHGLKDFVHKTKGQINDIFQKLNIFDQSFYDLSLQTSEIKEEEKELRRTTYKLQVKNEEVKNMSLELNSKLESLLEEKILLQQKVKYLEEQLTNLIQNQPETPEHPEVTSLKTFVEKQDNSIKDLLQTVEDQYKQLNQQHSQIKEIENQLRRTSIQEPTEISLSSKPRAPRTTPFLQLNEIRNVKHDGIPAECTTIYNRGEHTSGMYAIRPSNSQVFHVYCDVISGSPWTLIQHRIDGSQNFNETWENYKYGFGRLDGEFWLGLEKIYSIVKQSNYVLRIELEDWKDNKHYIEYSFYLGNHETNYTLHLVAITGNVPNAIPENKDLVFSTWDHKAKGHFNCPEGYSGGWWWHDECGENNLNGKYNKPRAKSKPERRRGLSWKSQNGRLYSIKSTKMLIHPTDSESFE
The experiment in a line: Phase 1 first-in-human ascending single-dose placebo-controlled study of evinacumab SC or IV in subjects with elevated TGs and/or LDL-C. The class given is in vivo. Here is the method:
Methods: The instant study constituted a phase 1, first-in-human, ascending single-dose, placebo (PBO)-controlled, double-blind study of evinacumab administered subcutaneously (SC) or intravenously (IV) in subjects with elevations of TGs (150≤TG≤450 mg/dL) and/or LDL C (≥100 mg/dL). Eighty-three subjects were randomized into the study (9 in PBO SC; 12 in PBO IV; 11 in 75 mg SC: 12 in 150 mg SC, 9 in 250 mg SC, 10 in 5 mg/kg IV, 9 in 10 mg/kg IV, and 11 in 20 mg/kg IV).

The target of data set [2] is T1, ANGPTL3. Conditions: Dewey, et al. 2017; cited from earlier work.

As to “evinacumab: human anti-ANGPTL3 monoclonal antibody; HCVR SEQ ID NO:1, LCVR SEQ ID NO:5”, in the data set with ANGPTL3 [1] (Day 4, across the evinacumab doses (75-250 mg SC, 5-20 mg/kg IV)), the “TG, median % change from baseline (maximum TG reductions)” value is on record as −1.0% to −75.0%. Besides, the “LDL-C, mean % changes from baseline” value with ANGPTL3 [1] (Day 11, across the evinacumab doses (75-250 mg SC, 5-20 mg/kg IV)) was −3.4% to −25.5%. Besides, in the data set with ANGPTL3 [1] (after 20 mg/kg IV), the “duration of LDL reduction” value is 43 days and the “duration of TG reduction” value is 64 days. In addition, in the data set with ANGPTL3 [1] (evinacumab group), the “headache (TEAE), number of subjects” value was found to be 7; the “headache (TEAE), percent of subjects” value amounted to 11.3%; the “subjects reporting at least one treatment emergent adverse event (TEAE), number” value is given as 32 subjects; the “subjects reporting at least one treatment emergent adverse event (TEAE), percent” value was 51.6%. The “increases in ALT/AST [>2X ULN], number of subjects” value with ANGPTL3 [1] (evinacumab-treated) was 5 treated subjects. In addition, the “effect on TGs, LDL-C and HDL-C” value in the data set with ANGPTL3 [1] (healthy subjects with moderately elevated TGs and/or LDL-C) was “rapid and substantial reductions in TGs, as well as reductions in LDL-C and HDL-C”. In the data set with ANGPTL3 [1] (human, in vivo), the “discontinuation due to a TEAE” value is recorded as “no subject discontinued due to a TEAE”; the dose-related safety trend result is reported as “no dose-related safety trend”; the “effect on HDL-C, VLDL-C, total cholesterol, non-HDL-C, ApoA1, and ApoB” value is reported as “Dose-dependent reductions”; the “effect on Lp(a)” value is listed as “no apparent effects”. In addition, in the data set with ANGPTL3 [1] (human, in vivo), the “serious TEAEs” value is “None were serious”. For the same substance, the “effect on major lipid fractions” value with ANGPTL3 [1] (normal healthy volunteers) was “reduced the three major lipid fractions”. Further, the tolerability result with ANGPTL3 [1] (single SC or IV dose, subjects with moderately elevated TGs and/or LDL-C) is “generally well-tolerated”. Also, the “tolerability and LDL-C effect in first-in-human study of healthy human volunteers” value with ANGPTL3 [2] was “shown to reduce LDL-C and was also well tolerated”.
